Test results published in patent US9085632B2, “Biological materials and uses thereof” (PEPTINNOVATE LIMITED, priority 2008, dated 2015).
“Also recorded” adds a separate entry of the source. Read-outs that look alike come from different tables or passages of the source.

Tests used:
[1] = system: spleen cells of C57Bl/6 mice; type: cell-based, C57BI/6 mice; settings: FIG. 8; for IL-12 release compared with Cpn60.1 at lower concentrations: lower concentrations (0.001-0.1 μg/ml)
[2] = system: ovalbumin challenged mice; type: in vivo; settings: for levels of total IgE circulating in serum: 0.005 μg/mouse, FIG. 13; for recruitment of total cells to the airways / recruitment of eosinophils to the airways: intra-nasal; for recruitment of total cells to the airways: Cpn60.1 1 μg, FIG. 10; for recruitment of eosinophils to the airways: Cpn60.1 0.1 and 1 μg, peptide 4 0.005 μg, FIG. 11
[3] = system: ovalbumin challenged mice; settings: previously demonstrated, Riffo-Vasquez et al. 2004; cited from earlier work
[4] = system: ovalbumin challenged mice; type: in vivo; settings: 24 h after repeated ovalbumin challenge, 10 μg intra-tracheal; for bronchial hyper-responsiveness to methacholine: FIG. 2; for recruitment of eosinophils to the airways (airways inflammation): percentage of eosinophils vs ovalbumin alone, FIG. 1; for levels of cytokines in BAL fluid (cytokine release in the lung): FIG. 3
Description: Allergic inflammation in the lung is induced by 2 intraperitoneal injections of 10 μg of ovalbumin (OVA) in 1 mg of alum with 7 days interval between them. Control animals receive alum only. On day 14, all animals are exposed to an aerosol of OVA for 25 minutes, once a day for 3 consecutive days. All measurements are performed 24 h after the last antigen challenge. […]

[5] = system: co-culture of dendritic cells and RD11.10 T cells; test: IL4 release in dendritic cell / T cell co-culture; type: cell-based, mice; settings: DC pre-treated 10 μg/ml 24 h, FIG. 7
Description: (§1) Bone marrow cells from Balb/c mice were collected and cultured for 6 days in complete Dulbecco's Modified Eagle Medium containing 8 ng/ml of mouse GM-CSF. On day 6 of culture, the cells were collected, re-plated for 1 hour for removal of adherent cells, washed and plated at […] in 6-wells plates for analysis of surface markers expression and transference experiments and at 10^5 cells/well in 96-wells plate for cytokine measurements. In other experiments, cells were incubated at 10^6 cells/well for 24 h with the chaperonins and then another further 24 h with LPS (10 ng/ml).
DC pre-treated with Cpn60.1 (10 μg/ml) or Cpn10 (10 μg/ml) for 24 h suppressed the release of IL4 from RD11.10 T cells in a DC/T cell co-culture. After 6 days of culture, cells were stimulated with anti-CD3 and anti-CD28 for further 24 hours and supernatants collected. IL5 and IL10 were not detected in this culture (FIG. 7).

[6] = system: human peripheral blood monocytes; test: Human monocyte assay, TNF-alpha secretion (ELISA); type: cell-based; settings: for LPS-induced TNF-alpha secretion: pre-treatment 1 hour, then LPS (1 ng/ml) 24 hours, FIGS. 18, 20
Description: We have established a human monocyte assay to compare the efficacy of Cpn60.1 and various peptide sequences of this protein. Human monocytes were obtained by density-dependent centrifugation from peripheral venus blood from healthy volunteers. Monocytes were then isolated and purified with cells adjusted to a density of 2×10^6 cells/ml which were incubated for 1 hour 30 minutes. The plates were then washed twice with Hanks solution. 0.9 ml of RPMI medium was then added to each well followed by polymyxin-B (5 μg/ml). 30 minutes later, 0.1 ml of Cpn at 0.0001-1000 ng/ml or peptides were added to the wells. Cells were then incubated at 37° C., 5% CO2 for 1 hour. The medium was removed and cells washed. 0.9 ml of medium was added to each well followed by 0.1 ml of LPS (1 ng/ml) and left to incubate for 24 hours. Supernatant was taken from each well and frozen for Enzyme Linked Immunosorbent Assay (ELISA).

[7] = system: bone marrow dendritic cells; test: IL-12 production by bone marrow dendritic cells pulsed with chaperonins; type: cell-based, Balb/c mice; settings: 48 h; Cpn60.1 0.1-30 μg/ml, Cpn10 10 μg/ml; FIG. 5
Description: as §1

[8] = system: bone marrow dendritic cells; test: LPS-induced IL12 production by dendritic cells after chaperonin pre-incubation; type: cell-based, Balb/c mice; settings: pre-incubation 24 hours, then LPS (10 ng/ml) further 24 h; FIG. 6
Description: as §1
Pre-incubation of DC's with Cpn60.1 but not Cpn10 for 24 hours inhibited IL12 production induced by LPS (FIG. 6).

[9] = system: OVA-sensitized recipient mice; test: Transfer of chaperonin pre-treated dendritic cells to OVA-sensitized recipient mice; type: in vivo; settings: dendritic cells pre-treated in vitro 24 h with 10 μg/ml, given topically to lungs; FIG. 4
Description: as §1
The DC's were pre-treated in vitro for 24 h with Cpn10 (10 μg/ml) and then administrated topically to the lungs of OVA-sensitized recipient mice.

[10] = system: spleen cells from TLR2KO mice; test: IL-12 release in spleen cells from TLR2KO mice; type: cell-based; settings: FIG. 9
LPS-treated mice = test: LPS-induced neutrophil recruitment to the lung (non-allergic inflammation); type: in vivo, Female Balb/c mice
Description: Female Balb/c mice were pre-treated intranasally with Cpn60.1 (1 μg/ml) for 3 days in the absence or following pre-treatment with polymyxin B (5 μg/ml) to rule out any effect of LPS contamination. 30 minutes after the last dose of Cpn60.1, mice were treated with LPS (1 μg/ml). Neutrophil influx and TNF-alpha release in the lungs were determined by bronchoalveolar lavage 24 hours later.

[11] = system: spleen cells collected from TLR4KO mice; test: IL-12 release in spleen cells from TLR4KO mice; type: cell-based; settings: FIG. 9
CFA-treated rats = test: Complete Freund's Adjuvant (CFA)-induced hyperalgesia; type: in vivo, male Wistar rats; settings: 50 & 500 μg/kg subcutaneously for 7 days; compared to ibuprofen 100 mg/kg; FIGS. 14 and 15
Description: (§2) The effect of Cpn60.1 has been investigated in 2 models of pain, Complete Freund's Adjuvant (CFA)-induced hyperalgesia and Ultra Violet Burn-induced hyperalgesia. Mechanical hyperalgesia was measured using Von Frey filaments applied with increasing force to the hind paw. Thermal hyperalgesia was measured using the time taken to withdraw the hind paw from a heat source. Cpn60.1 (50 & 500 μg/kg) was chronically administered to male Wistar rats (200 g) subcutaneously for 7 days. Every alternate day behavioural responses to mechanical and thermal allodynia were recorded. After baseline recordings, CFA was injected in to the hind paw to induce hyperalgesia and behavioural tests were performed. […] Another model of hyperalgesia was tested, this time using UV burn to induce allodynia. Again, Cpn60.1 had little effect at inhibiting hyperalgesia compared to the group treated with ibuprofen (FIGS. 16 and 17).

UV-treated rats = test: Ultra Violet Burn-induced hyperalgesia; type: in vivo, male Wistar rats; settings: compared to the group treated with ibuprofen; FIGS. 16 and 17
Description: as §2

[12] = 24 h after repeated ovalbumin challenge
[13] = 24 h after repeated ovalbumin challenge, listed as Cpn60.1-peptide 4

Molecule: DGSVVVNKVSELPAGHGLNVNTLSYGDLAAD (listed as Mycobacterium tuberculosis) [Peptide 4]
- IL-12 release compared with Cpn60.1 at higher concentration ([1]; higher concentration (0.1-30 μg/ml), polymixin B): reduced effect in comparison to Cpn60.1
- IL-12 release compared with Cpn60.1 at lower concentrations ([1]; polymixin B): more effective than Cpn60.1
- levels of total IgE circulating in serum [2, 12]: affected total IgE production
- levels of total IgE circulating in serum [2, 13]: significantly inhibited
- levels of IL-5 in BAL fluid ([2]; 24 h after repeated ovalbumin challenge, FIG. 12): not caused by an interference with the production of IL-5
- levels of IL-5 in BAL fluid ([2]; 24 h after repeated ovalbumin challenge, FIG. 12, listed as Cpn60.1-peptide 4): not significantly inhibited
- recruitment of total cells to the airways [2, 12]: inhibited
- recruitment of eosinophils to the airways [2, 12]: significant reduction
- recruitment of eosinophils to the airways [2, 13]: inhibited

Molecule: LTTETVVVDKPAKAEDHDHHHGHAH (listed as Mycobacterium tuberculosis) [Peptide 6]
- IL-12 release compared with Cpn60.1 at lower concentrations ([1]; polymixin B): less potent effect

Molecule: Cpn60.2: M. tuberculosis chaperonin polypeptide chaperonin 60.2
- lung inflammation in a murine model of asthma [3]: not
- bronchial hyper-responsiveness to methacholine [4]: not
- recruitment of eosinophils to the airways (airways inflammation) [4]: not

B1: Cpn10: M. tuberculosis chaperonin polypeptide chaperonin 10 (protein, UniProt P9WPE5 2-100, looked up)
Co-chaperonin GroES: AKVNIKPLEDKILVQANEAETTTASGLVIPDTAKEKPQEGTVVAVGPGRWDEDGEKRIPLDVAEGDTVIYSKYGGTEIKYNGEEYLILSARDVLAVVSK
- levels of IL4 in DC/T cell co-culture ([5]; 6 days co-culture, anti-CD3 and anti-CD28 24 hours): suppressed
- LPS-induced TNF-alpha secretion [6]: does not suppress; also recorded: failed to inhibit
- IL12 production by dendritic cells [7]: induced low levels; also recorded: induced lower levels of IL-12 release in comparison to LPS and Cpn60.1
- lung inflammation in a murine model of asthma [3]: suppressed
- IL12 production induced by LPS [8]: not
- bronchial hyper-responsiveness to methacholine [4]: reduced; also recorded: significantly inhibit
- levels of cytokines in BAL fluid (cytokine release in the lung) [4]: significantly inhibit
- recruitment of eosinophils to the airways (airways inflammation) [4]: inhibited; also recorded: significantly inhibit
- eosinophils migration to the lung [9]: significantly inhibited

B2: Cpn60.1: chaperonin protein Chaperonin 60.1 of Mycobacterium tuberculosis, amino acid sequence shown in FIG. 25 (protein)
chain: MSKLIEYDETARRAMEVGMDKLADTVRVTLGPRGRHVVLAKAFGGPTVTNDGVTVAREIELEDPFEDLGAQLVKSVATKTNDVAGDGTTTATILAQALIKGGLRLVAAGVNPIALGVGIGKAADAVSEALLASATPVSGKTGIAQVATVSSRDEQIGDLVGEAMSKVGHDGVVSVEESSTLGTELEFTEGIGFDKGFLSAYFVTDFDNQQAVLEDALILLHQDKISSLPDLLPLLEKVAGTGKPLLIVAEDVEGEALATLVVNAIRKTLKAVAVKGPYFGDRRKAFLEDLAVVTGGQVVNPDAGMVLREVGLEVLGSARRVVVSKDDTVIVDGGGTAEAVANRAKHLRAEIDKSDSDWDREKLGERLAKLAGGVAVIKVGAATETALKERKESVEDAVAAAKAAVEEGIVPGGGASLIHQARKALTELRASLTGDEVLGVDVFSEALAAPLFWIAANAGLDGSVVVNKVSELPAGHGLNVNTLSYGDLAADGVIDPVKVTRSAVLNASSVARMVLTTETVVVDKPAKAEDHDHHHGHAH
- levels of IL4 in DC/T cell co-culture ([5]; […]): suppressed
- IL-12 release ([1]; 0.001-30 μg/ml, 24 h, polymixin B 5 μg/ml): induce IL-12 release
- TNF-alpha release induced by LPS, percent of control values ([6]; Cpn60.1 vs Cpn60.1 peptides, FIG. 21): suppress
- concentration of maximum inhibition of LPS-induced TNF-α secretion ([6]; although not significant, FIG. 18): 1 ng/mL
- TNF-alpha secretion induced by the substance alone ([6]; no LPS): able to stimulate human monocytes to induce TNF-alpha secretion
- LPS-induced TNF-alpha secretion in the presence of polymyxin-B ([6]; polymyxin-B 5 μg/ml, FIG. 19): suppresses
- LPS-induced TNF-alpha secretion [6]: suppresses; also recorded: inhibited TNF-alpha secretion at low doses
- IL-12 response of TLR2KO spleen cells [10]: refractory
- recruitment of total cells to the airways ([2]; […]): significantly inhibited
- recruitment of total cells to the airways ([2]; […], listed as Cpn60): inhibited
- recruitment of eosinophils to the airways ([2]; […]): significant reduction
- recruitment of eosinophils to the airways ([2]; […], listed as Cpn60): inhibited
- levels of IL-5 in BAL fluid ([2]; mouse, in vivo): not significantly inhibited; also recorded: not caused by an interference with the production of IL-5
- TNF-alpha secretion in the lungs (LPS-treated mice; intranasal 1 μg/ml for 3 days, LPS 1 μg/ml, lavage 24 hours later, FIG. 24): not significantly attenuated
- LPS-induced neutrophilia (neutrophils recovered from lavage) (LPS-treated mice; intranasal 1 μg/ml for 3 days, LPS 1 μg/ml, lavage at 24 hours, FIG. 24): reduced LPS-induced neutrophilia; also recorded: suppression in neutrophilia
- neutrophil recruitment with the substance alone (LPS-treated mice; no LPS, FIG. 23): No neutrophil recruitment
- effect of polymyxin B pre-treatment on suppression of neutrophil recruitment (LPS-treated mice; polymyxin B (5 μg/ml)): made no difference
- IL12 production by dendritic cells [7]: produced IL12 in a dose-dependant manner; also recorded: induced the release of IL-12 in a dose dependent-manner
- lung inflammation in a murine model of asthma [3]: suppressed
- IL-12 response of TLR4KO spleen cells compared to wild type C57bl/6 [11]: reduced response; also recorded: significantly refractory
- IL12 production induced by LPS [8]: inhibited
- bronchial hyper-responsiveness to methacholine [4]: reduced; also recorded: significantly inhibit
- levels of cytokines in BAL fluid (cytokine release in the lung) [4]: inhibited; also recorded: significantly inhibit
- recruitment of eosinophils to the airways (airways inflammation) [4]: inhibited; also recorded: significantly inhibit
- CFA-induced hyperalgesia (mechanical and thermal) (CFA-treated rats): Neither dose of Cpn60.1 reduced CFA-induced hyperalgesia
- UV burn-induced hyperalgesia (mechanical and thermal) (UV-treated rats): little effect
